T1: SN-F (Sendai virus, UniProt P04855)
T1 sequence (P04855 117-565 limits assumed): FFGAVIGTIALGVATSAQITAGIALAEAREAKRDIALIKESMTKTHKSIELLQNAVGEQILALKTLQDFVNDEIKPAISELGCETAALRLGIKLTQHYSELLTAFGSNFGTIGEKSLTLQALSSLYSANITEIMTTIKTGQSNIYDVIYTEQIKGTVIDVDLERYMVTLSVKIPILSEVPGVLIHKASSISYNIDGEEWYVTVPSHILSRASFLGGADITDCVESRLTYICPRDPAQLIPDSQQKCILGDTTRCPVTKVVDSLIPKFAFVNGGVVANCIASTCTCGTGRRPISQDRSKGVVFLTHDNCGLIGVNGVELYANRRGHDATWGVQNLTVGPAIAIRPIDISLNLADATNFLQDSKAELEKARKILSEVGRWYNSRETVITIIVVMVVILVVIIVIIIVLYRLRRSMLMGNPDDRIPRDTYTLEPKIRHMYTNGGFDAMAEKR
T1 sequence (P04855 26-116 partner limits assumed): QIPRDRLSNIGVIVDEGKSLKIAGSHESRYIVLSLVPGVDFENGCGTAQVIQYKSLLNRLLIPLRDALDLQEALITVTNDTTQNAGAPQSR

T2: SN-F, fusion glycoprotein of Sendai virus (Sendai virus (SN), UniProt P04855)
T2 sequence: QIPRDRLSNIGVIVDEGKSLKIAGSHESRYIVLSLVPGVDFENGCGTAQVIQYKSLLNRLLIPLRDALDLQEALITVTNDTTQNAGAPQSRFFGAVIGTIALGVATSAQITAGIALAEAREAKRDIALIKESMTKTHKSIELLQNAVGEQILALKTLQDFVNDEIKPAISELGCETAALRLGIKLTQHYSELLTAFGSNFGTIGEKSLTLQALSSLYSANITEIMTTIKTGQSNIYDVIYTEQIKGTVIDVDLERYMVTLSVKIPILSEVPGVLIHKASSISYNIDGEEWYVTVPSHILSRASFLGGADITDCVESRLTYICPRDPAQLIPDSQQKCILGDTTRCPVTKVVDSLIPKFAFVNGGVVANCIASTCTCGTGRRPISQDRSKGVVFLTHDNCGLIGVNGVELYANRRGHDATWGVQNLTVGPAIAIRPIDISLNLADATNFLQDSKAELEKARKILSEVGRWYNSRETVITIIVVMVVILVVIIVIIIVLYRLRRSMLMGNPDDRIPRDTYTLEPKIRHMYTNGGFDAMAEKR

B1: PI3-HN: wild type human parainfluenza type 3 virus HN protein (protein)
chain: MEYWKHTNHGKDAGNELETSMATHGNKITNKITYILWTIILVLLSIVFIIVLINSIKSEKAHESLLQDVNNEFMEVTEKIQMASDNINDLIQSGVNTRLLTIQSHVQNYIPISLTQQMSDLRKFISEITIRNDNQEVPPQRITHDVGIKPLNPDDFWRCTSGLPSLMKTPKIRLMPGPGLLAMPTTVDGCVRTPSLVINDLIYAYTSNLITRGCQDIGKSYQVLQIGIITVNSDLVPDLNPRISHTFNINDNRKSCSLALLNTDVYQLCSTPKVDERSDYASSGIEDIVLDIVNHDGSISTTRFKNNNISFDQPYAALYPSVGPGIYYKGKIIFLGYGGLEHPINENAICNTTGCPGKTQRDCNQASHSPWFSDRRMVNSIIVVDKGLNSIPKLKVWTISMRQNYWGSEGRLLLLGNKIYIYTRSTSWHSKLQLGIIDITDYSDIRIKWTWHNVLSRPGNNECPWGHSCPDGCITGVYTDAYPLNPTGSIVSSVILDSQKSRVNPVITYSTSTERVNELAIRNKTLSAGYTTTSCITHYNKGYCFHIVEINHKSLDTFQPMLFKTEIPKSCS
B2: SN(27-140) chimeric HN protein (other)
chain: MEYWKHTNHGKDAGNELETSMATHGNWERSSKADTWLLILSFTQWALSIATVIICIIISARQGYSMKEYSMTVEALNMSSREVKESLTSLIRQEVIARAVNIQSSVQTGIPVLLNKNSRDVIQMIDKSCSRQELTQHCESRITHDVGIKPLNPDDFWRCTSGLPSLMKTPKIRLMPGPGLLAMPTTVDGCVRTPSLVINDLIYAYTSNLITRGCQDIGKSYQVLQIGIITVNSDLVPDLNPRISHTFNINDNRKSCSLALLNTDVYQLCSTPKVDERSDYASSGIEDIVLDIVNHDGSISTTRFKNNNISFDQPYAALYPSVGPGIYYKGKIIFLGYGGLEHPINENAICNTTGCPGKTQRDCNQASHSPWFSDRRMVNSIIVVDKGLNSIPKLKVWTISMRQNYWGSEGRLLLLGNKIYIYTRSTSWHSKLQLGIIDITDYSDIRIKWTWHNVLSRPGNNECPWGHSCPDGCITGVYTDAYPLNPTGSIVSSVILDSQKSRVNPVITYSTSTERVNELAIRNKTLSAGYTTTSCITHYNKGYCFHIVEINHKSLDTFQPMLFKTEIPKSCS
B3: SN-HN: wild type Sendai virus hemagglutinin-neuraminidase (HN) protein (protein)
chain: MDGDRGKRDSYWSTSPSGSTTKPASGWERSSKADTWLLILSFTQWALSIATVIICIIISARQGYSMKEYSMTVEALNMSSREVKESLTSLIRQEVIARAVNIQSSVQTGIPVLLNKNSRDVIQMIDKSCSRQELTQHCESTIAVHHADGIAPLEPHSFWRCPVGEPYLSSDPEISLLPGPSLLSGSTTISGCVRLPSLSIGEAIYAYSSNLITQGCADIGKSYQVLQLGYISLNSDMFPDLNPVVSHTYDINDNRKSCSVVATGTRGYQLCSMPTVDERTDYSSDGIEDLVLDVLDLKGRTKSHRYRNSEVDLDHPFSALYPSVGNGIATEGSLIFLGYGGLTTPLQGDTKCRTQGCQQVSQDTCNEALKITWLGGKQVVSVIIQVNDYLSERPKIRVTTIPITQNYLGAEGRLLKLGDRVYIYTRSSGWHSQLQIGVLDVSHPLTINWTPHEALSRPGNKECNWYNKCPKECISGVYTDAYPLSPDAANVATVTLYANTSRVNPTIMYSNTTNIINMLRIKDVQLEAAYTTTSCITHFGKGYCFHIIEINQKSLNTLQPMLFKTSIPKLCKAES
B4: SN(140) chimeric HN protein (other)
chain: MDGDRGKRDSYWSTSPSGSTTKPASGWERSSKADTWLLILSFTQWALSIATVIICIIISARQGYSMKEYSMTVEALNMSSREVKESLTSLIRQEVIARAVNIQSSVQTGIPVLLNKNSRDVIQMIDKSCSRQELTQHCESRITHDVGIKPLNPDDFWRCTSGLPSLMKTPKIRLMPGPGLLAMPTTVDGCVRTPSLVINDLIYAYTSNLITRGCQDIGKSYQVLQIGIITVNSDLVPDLNPRISHTFNINDNRKSCSLALLNTDVYQLCSTPKVDERSDYASSGIEDIVLDIVNHDGSISTTRFKNNNISFDQPYAALYPSVGPGIYYKGKIIFLGYGGLEHPINENAICNTTGCPGKTQRDCNQASHSPWFSDRRMVNSIIVVDKGLNSIPKLKVWTISMRQNYWGSEGRLLLLGNKIYIYTRSTSWHSKLQLGIIDITDYSDIRIKWTWHNVLSRPGNNECPWGHSCPDGCITGVYTDAYPLNPTGSIVSSVILDSQKSRVNPVITYSTSTERVNELAIRNKTLSAGYTTTSCITHYNKGYCFHIVEINHKSLDTFQPMLFKTEIPKSCS
B5: SN(137) chimeric HN protein (other)
chain: MDGDRGKRDSYWSTSPSGSTTKPASGWERSSKADTWLLILSFTQWALSIATVIICIIISARQGYSMKEYSMTVEALNMSSREVKESLTSLIRQEVIARAVNIQSSVQTGIPVLLNKNSRDVIQMIDKSCSRQELTQHPPQRITHDVGIKPLNPDDFWRCTSGLPSLMKTPKIRLMPGPGLLAMPTTVDGCVRTPSLVINDLIYAYTSNLITRGCQDIGKSYQVLQIGIITVNSDLVPDLNPRISHTFNINDNRKSCSLALLNTDVYQLCSTPKVDERSDYASSGIEDIVLDIVNHDGSISTTRFKNNNISFDQPYAALYPSVGPGIYYKGKIIFLGYGGLEHPINENAICNTTGCPGKTQRDCNQASHSPWFSDRRMVNSIIVVDKGLNSIPKLKVWTISMRQNYWGSEGRLLLLGNKIYIYTRSTSWHSKLQLGIIDITDYSDIRIKWTWHNVLSRPGNNECPWGHSCPDGCITGVYTDAYPLNPTGSIVSSVILDSQKSRVNPVITYSTSTERVNELAIRNKTLSAGYTTTSCITHYNKGYCFHIVEINHKSLDTFQPMLFKTEIPKSCS

How the values were obtained:
HeLa-T4 cells = format: cell-based
SN-F = molecular target: T1, SN-F; format: cell-based
guinea pig erythrocytes = format: cell-based
[1] = molecular target: T2, SN-F, fusion glycoprotein of Sendai …; assay: cell-based or functional assay

Molecule	Cell surface expression (%) (HeLa-T4 cells)	Fusion activity (5) (SN-F)	Relative fusion promoting activity b/a (SN-F)	cell fusion / syncytium formation with SN-F observed by microscopy (SN-F)	HAD activity as percentage of wild type SN-HN hemadsorption (guinea pig erythrocytes)	hemadsorption observed under the microscope (guinea pig erythrocytes)	Fusion activity (%), β-galactosidase production in the fusion dependent reporter gene activation assay [1]	fusion promoting activity, percentage of wild type SN-HN (SN-F)
B1	100.0	3.47	0.03	no cell fusion was observed				
B2	75.6			Syncytium formation was observed	comparable or higher HAD activity than that of SN-HN	high levels of hemadsorption	79.7 % of SN-HN wt with SN-F	
B3	163.9	100.00	0.61	Extensive cell fusion		high levels of hemadsorption		
B4	68.1		0.66	lower level of syncytium formation	comparable or higher HAD activity than that of SN-HN	high levels of hemadsorption	44.6 % of SN-HN wt with SN-F	
B5					27.5%	lower activities	0 % of SN-HN wt with SN-F	did not show any significant fusion promoting activity

Source: US5969094A, “Anti-paramyxovirus screening method and vaccine” (Emory University, priority 1996, dated 1999)
